Source: publication PMC10054023, “Fabrication of Rapid Electrical Pulse-Based Biosensor Consisting of Truncated DNA Aptamer for Zika Virus Envelope Protein Detection in Clinical Samples”

Legend:
[1] = biological target: T1, Zika virus envelope protein (Zika virus, UniProt A0A024B7W1 291-694); assay: EMSA (8% TBE-PAGE); Kd slightly lower than truncated aptamer, value not given; […], aptamer 3 nM-1 uM, […]; binding buffer not stated ([…], read in 1 M KCl pH 7.; conditions: protein: commercial; stem-loops (mfold prediction)
[2] = biological target: T1, Zika virus envelope protein; assay: bead-based fluorescence binding assay; protein on magnetic beads; Bead assay: room temperature, 1 h, envelope protein 0.15 mg/mL on magnetic beads, aptamer 3 nM-1 uM, DIW wash; binding buffer not stated (folding predicted at 140 mM Na+, 5 mM Mg2+). Sensor: ACEF 10 min, read in 1 M KCl pH 7.; conditions: protein: commercial; label: 5' 6-FAM; stem-loops (mfold prediction)
myoglobin = myoglobin (horse, UniProt P68082 2-154); assay: pulse voltammetry biosensor; no significant reactivity; Bead assay: room temperature, 1 h, envelope protein 0.15 mg/mL on magnetic beads, aptamer 3 nM-1 uM, DIW wash; binding buffer not stated (folding predicted at 140 mM Na+, 5 mM Mg2+). Sensor: ACEF 10 min, read in 1 M KCl pH 7.; conditions: protein: commercial; stem-loops (mfold prediction)
hemoglobin = hemoglobin (horse, UniProt P01958;P02062 2-142;1-146); assay: as above; conditions: protein: commercial; chain copies: 2;2; stem-loops (mfold prediction)
fibrinogen = fibrinogen (UniProt P02671;P02675;P02679 20-629;31-491;27-453); assay: as above; conditions: protein: commercial; chain copies: 2;2;2; stem-loops (mfold prediction)
[3] = biological target: T1, Zika virus envelope protein; assay: pulse voltammetry biosensor; ACEF; read in 1 M KCl pH 7; LOD 90.1 pM; Bead assay: room temperature, 1 h, envelope protein 0.15 mg/mL on magnetic beads, aptamer 3 nM-1 uM, DIW wash; binding buffer not stated (folding predicted at 140 mM Na+, 5 mM Mg2+). Sensor: ACEF 10 min, read in 1 M KCl pH 7.; conditions: protein: commercial; stem-loops (mfold prediction)

Chain of fibrinogen (P02671 20-629, chain 1 of 3): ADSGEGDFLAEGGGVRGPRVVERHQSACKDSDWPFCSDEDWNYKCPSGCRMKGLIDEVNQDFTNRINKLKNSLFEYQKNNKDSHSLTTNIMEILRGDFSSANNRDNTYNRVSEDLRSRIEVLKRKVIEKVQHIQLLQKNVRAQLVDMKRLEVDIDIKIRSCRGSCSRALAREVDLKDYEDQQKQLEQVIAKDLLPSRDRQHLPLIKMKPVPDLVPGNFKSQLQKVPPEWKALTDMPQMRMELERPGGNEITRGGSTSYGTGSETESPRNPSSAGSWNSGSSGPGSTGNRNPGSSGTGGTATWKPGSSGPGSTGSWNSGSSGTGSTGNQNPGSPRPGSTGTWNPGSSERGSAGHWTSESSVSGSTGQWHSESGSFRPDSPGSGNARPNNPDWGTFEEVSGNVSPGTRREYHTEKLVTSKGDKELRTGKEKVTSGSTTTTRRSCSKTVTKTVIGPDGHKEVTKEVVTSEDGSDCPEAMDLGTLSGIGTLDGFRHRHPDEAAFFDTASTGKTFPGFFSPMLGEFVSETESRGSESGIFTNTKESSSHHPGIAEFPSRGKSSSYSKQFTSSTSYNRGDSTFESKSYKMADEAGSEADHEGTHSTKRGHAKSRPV
Chain of fibrinogen (P02675 31-491, chain 2 of 3): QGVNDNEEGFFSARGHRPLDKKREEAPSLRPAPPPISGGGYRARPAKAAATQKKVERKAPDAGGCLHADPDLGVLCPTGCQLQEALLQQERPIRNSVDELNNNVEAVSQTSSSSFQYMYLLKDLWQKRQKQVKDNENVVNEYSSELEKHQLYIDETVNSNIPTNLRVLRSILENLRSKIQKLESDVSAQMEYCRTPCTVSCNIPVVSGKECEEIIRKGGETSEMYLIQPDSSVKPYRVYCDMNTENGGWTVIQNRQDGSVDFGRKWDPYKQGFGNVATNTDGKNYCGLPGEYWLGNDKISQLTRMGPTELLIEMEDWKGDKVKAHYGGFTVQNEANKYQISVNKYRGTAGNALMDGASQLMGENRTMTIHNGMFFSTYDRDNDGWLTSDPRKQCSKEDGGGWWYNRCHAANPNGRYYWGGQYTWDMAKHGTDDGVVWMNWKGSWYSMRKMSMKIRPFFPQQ
Chain of fibrinogen (P02679 27-453, chain 3 of 3): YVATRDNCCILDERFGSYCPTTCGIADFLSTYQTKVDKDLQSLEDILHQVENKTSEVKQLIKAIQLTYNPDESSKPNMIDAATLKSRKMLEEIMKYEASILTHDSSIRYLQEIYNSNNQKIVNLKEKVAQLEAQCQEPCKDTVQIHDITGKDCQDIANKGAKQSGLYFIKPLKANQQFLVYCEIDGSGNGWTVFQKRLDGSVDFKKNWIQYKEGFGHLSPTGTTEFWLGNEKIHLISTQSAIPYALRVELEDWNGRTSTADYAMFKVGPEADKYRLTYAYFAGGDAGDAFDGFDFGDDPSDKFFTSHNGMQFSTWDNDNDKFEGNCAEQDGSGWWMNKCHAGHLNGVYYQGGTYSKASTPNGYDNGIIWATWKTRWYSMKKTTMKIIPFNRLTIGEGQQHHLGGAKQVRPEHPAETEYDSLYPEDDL
Chain of hemoglobin (P01958 2-142, chain 1 of 2): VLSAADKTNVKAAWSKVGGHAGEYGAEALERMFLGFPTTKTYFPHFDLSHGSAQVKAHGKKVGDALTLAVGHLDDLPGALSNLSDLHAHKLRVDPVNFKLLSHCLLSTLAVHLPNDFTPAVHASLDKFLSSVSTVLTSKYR
Chain of hemoglobin (P02062 whole entry, chain 2 of 2): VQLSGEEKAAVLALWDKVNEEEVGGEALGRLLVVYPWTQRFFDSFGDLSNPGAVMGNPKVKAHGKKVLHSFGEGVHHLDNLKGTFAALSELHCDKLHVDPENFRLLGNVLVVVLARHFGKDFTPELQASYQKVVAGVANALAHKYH
Chain of myoglobin (P68082 2-154): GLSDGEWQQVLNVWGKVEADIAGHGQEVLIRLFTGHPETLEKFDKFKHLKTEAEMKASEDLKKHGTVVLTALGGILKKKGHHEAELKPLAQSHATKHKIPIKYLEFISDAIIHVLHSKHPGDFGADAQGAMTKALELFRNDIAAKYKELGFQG

B1: original Zika envelope aptamer (ZV apt) (structured_DNA)
DNA: TGACACCGTACCTGCTCTAGTGCGCACTGAACGATCCTGCGTCAAGTTCAAGGTTGTGAAGCACGCCAAGGGACTAT
[1]
  binding result: binds

B2: truncated Zika aptamer (T-ZV apt), 5'-FAM (structured_DNA)
DNA: TGCGCACTGAACGATCCTGCGTCAAGTTCAAGGTTGTG
[2]
  Kd: 333 ± 60.3 nM

B3: truncated Zika aptamer (T-ZV apt), thiolated (structured_DNA)
DNA: TGCGCACTGAACGATCCTGCGTCAAGTTCAAGGTTGTG
modifications: thiol (SH), end not stated
myoglobin
  binding result: no binding
hemoglobin
  binding result: no binding
fibrinogen
  binding result: no binding
[3]
  binding result: binds
